Results from paper PMC7152798.

Key:
[1] = molecular target: GST-FMRP C-terminus deleted from the last 63 amino acids (mouse); experiment: pull-down; GST-fusion proteins made in yeast, immobilised on glutathione sepharose 4B beads and incubated at 4 °C with lysate of tsA-201 cells transfected with CaV2.2/α2δ-1/β1b; washed four times with ice-cold 1% Triton-PBS; blots with CaV2.2 II-III loop Ab and GST Ab; bands quantified as a percentage of CT
[2] = molecular target: GST-FMRP C-terminus deleted from the last 89 amino acids which includes the RGG motif (mouse); experiment: as above

Chain of calcium channel CaV2.2 (Q05152 whole entry): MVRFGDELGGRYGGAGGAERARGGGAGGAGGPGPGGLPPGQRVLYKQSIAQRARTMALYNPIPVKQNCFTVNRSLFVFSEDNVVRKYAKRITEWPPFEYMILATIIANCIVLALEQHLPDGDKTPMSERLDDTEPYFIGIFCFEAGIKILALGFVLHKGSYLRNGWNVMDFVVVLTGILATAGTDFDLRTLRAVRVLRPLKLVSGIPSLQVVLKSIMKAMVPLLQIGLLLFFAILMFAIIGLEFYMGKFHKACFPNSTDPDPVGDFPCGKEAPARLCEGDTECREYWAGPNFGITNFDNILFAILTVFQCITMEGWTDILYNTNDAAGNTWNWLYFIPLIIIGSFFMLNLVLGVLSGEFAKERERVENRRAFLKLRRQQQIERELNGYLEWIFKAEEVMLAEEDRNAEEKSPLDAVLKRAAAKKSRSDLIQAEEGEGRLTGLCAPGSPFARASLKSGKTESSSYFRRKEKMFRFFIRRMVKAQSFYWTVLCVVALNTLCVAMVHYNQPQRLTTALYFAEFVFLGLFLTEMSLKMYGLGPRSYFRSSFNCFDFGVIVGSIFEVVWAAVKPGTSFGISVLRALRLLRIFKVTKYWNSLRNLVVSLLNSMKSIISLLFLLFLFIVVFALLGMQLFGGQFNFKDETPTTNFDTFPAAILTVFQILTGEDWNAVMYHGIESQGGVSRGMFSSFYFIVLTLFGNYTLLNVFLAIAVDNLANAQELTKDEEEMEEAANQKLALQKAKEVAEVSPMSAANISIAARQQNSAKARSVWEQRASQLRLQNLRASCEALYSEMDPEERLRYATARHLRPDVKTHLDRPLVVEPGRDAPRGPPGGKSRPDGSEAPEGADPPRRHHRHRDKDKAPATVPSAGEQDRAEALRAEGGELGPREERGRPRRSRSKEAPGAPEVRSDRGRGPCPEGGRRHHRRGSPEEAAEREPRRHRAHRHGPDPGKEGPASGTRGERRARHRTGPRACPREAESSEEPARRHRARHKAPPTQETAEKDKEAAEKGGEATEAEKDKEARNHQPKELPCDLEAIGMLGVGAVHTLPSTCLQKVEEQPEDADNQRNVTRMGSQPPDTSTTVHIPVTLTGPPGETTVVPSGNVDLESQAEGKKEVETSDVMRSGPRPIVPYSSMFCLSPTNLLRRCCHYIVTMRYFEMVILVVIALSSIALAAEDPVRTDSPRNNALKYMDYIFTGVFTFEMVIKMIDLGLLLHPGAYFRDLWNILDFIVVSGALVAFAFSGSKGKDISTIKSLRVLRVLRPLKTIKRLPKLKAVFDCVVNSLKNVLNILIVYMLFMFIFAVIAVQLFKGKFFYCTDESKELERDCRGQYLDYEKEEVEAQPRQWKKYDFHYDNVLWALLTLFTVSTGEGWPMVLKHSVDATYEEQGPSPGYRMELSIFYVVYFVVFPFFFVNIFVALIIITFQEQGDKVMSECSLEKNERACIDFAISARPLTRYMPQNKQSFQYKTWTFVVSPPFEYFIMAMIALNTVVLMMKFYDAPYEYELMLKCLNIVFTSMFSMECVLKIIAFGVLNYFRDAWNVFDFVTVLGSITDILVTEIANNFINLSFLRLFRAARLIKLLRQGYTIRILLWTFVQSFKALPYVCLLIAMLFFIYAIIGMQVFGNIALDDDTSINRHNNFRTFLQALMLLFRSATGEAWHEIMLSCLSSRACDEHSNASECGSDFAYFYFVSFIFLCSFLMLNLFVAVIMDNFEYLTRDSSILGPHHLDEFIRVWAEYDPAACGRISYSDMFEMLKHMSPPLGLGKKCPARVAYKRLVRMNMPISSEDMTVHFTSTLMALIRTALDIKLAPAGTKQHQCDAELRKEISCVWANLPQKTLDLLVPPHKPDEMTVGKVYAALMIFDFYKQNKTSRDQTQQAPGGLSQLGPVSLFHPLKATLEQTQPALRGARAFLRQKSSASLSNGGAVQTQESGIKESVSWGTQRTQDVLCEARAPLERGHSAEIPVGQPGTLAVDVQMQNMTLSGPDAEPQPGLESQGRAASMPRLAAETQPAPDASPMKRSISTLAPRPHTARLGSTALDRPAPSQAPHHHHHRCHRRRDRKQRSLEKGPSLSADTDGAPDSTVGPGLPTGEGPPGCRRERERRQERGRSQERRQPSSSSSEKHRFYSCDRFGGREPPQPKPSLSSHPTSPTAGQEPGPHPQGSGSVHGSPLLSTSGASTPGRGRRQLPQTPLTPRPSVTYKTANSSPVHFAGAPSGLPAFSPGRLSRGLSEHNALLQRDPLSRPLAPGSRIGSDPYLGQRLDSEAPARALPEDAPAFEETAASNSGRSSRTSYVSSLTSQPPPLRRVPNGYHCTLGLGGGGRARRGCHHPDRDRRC

calcium channel CaV2.2 (from UniProt Q05152 1-2339) (natural protein)
reduction of the binding relative to CT [1]: 61.7% | reduction of the binding relative to CT [2]: 79.5%
